Target: angiotensin-converting enzyme 2 (ACE2) protein, purified (UniProt Q9BYF1)
Test: AFM single-molecule force spectroscopy (FD-curve-based AFM)

In the case of “SARS-CoV-2 spike glycoprotein receptor-binding domain (from UniProt P0DTC2 319-541) (domain or fragment)”, the Kd is reported as 120 nM, the bond lifetime τ is reported as 111 ms and the interaction time is reported as 0.25 ms.

From publication PMC7486399
